These results are taken from the RNAGym collection of RNA variant scans (doi:10.7554/elife.90254).

To fix the notation:
B1: LINE1-mini (parent)
chain: GGCAGAGCUCAACACAGCGUGGCAAAGUGGCUGUGGCUAGACUGCC

Variants of B1 are the subject of the data set. Put plainly: self-cleavage, relative activity (ratio to wild type); higher = more cleavage; in vitro, sequencing; the parent is a self-cleaving ribozyme.
Turning to A12U G33A, the self-cleavage amounted to 0.05. Next, A12U G33C: 0.03; A12U G44C: 0.17. The same measure for A12U G44U: 0.11. The same measure for A12U G44A: 0.22; for C13A C37U: 0.34. As to C13A C37A, the self-cleavage came out at 0.09.

For C13A C37G, the self-cleavage was found to be 0.05.

As for C13G C23U, the self-cleavage stood at 0.46. Next, C13G C23A: 0.29; C13G C23G: 0.13. Turning to C13A C42U, the self-cleavage worked out at 0.09. Turning to C13A C42A, the self-cleavage amounted to 0.09. With C13A C42G, the self-cleavage came to 0.08. Turning to C13A C45A, the self-cleavage was found to be 0.08. Next, C13A C45G: 0.09. Next, C13A C45U: 0.15. Regarding A12U C45A, the self-cleavage is 0.38.

Turning to A12U C45U, the self-cleavage was 0.27. Next, A12U C45G: 0.08; C13G C46A: 0.28.

Consider C13G C46U, for which the self-cleavage was found to be 0.46. In the case of C13G C46G, the self-cleavage was found to be 0.19. Next, A12G C46G: 0.05. Next, A12G C46A: 0.31; A12G C46U: 0.03. Turning to A12G C42G, the self-cleavage was 0.02. Turning to A12G C42U, the self-cleavage came out at 0.07.

In the case of A12G C42A, the self-cleavage stood at 0.05. Next, A12U C23U: 0.34; A12U C23A: 0.27.

In the case of A12U C23G, the self-cleavage came out at 0.26. Next, C13A A24U: 0.08. In the case of C13A A24C, the self-cleavage worked out at 0.18. Next, C13A A24G: 0.11. With A12U U28A, the self-cleavage was found to be 0.2. Next, A12U U28G: 0.12; A12U U28C: 0.6. The same measure for C13A C23U: 0.16; for C13A C23A: 0.16. For the variant C13A C23G, the self-cleavage came to 0.13. The same measure for C13G A16U: 0.15. Regarding C13G A16C, the self-cleavage turned out to be 0.08.

In the case of C13G A16G, the self-cleavage was found to be 0.01. Next, A12U A25U: 0.25; A12U A25C: 0.22. Next, A12U A25G: 0.4; C13G A24C: 0.07. Next, C13G A24G: 0.22; C13G A24U: 0.16. A12U A16U: the self-cleavage was found to be 0.07. Consider A12U A16G, for which the self-cleavage was 0.16. For A12U A16C, the self-cleavage was found to be 0.05.

In the case of C13A U38C, the self-cleavage is 0.1.

Consider C13A U38A, for which the self-cleavage was determined as 0.05.

Consider C13A U38G, for which the self-cleavage is 0.03. For the variant C13A A25C, the self-cleavage is 0.06.

Regarding C13A A25G, the self-cleavage was 0.1. For C13A A25U, the self-cleavage was 0.11. On to A12U G19C, for which the self-cleavage was 0.32.

For A12U G19U, the self-cleavage is 0.19.

As for A12U G19A, the self-cleavage amounted to 0.42.

Take C13A G30A: the self-cleavage came out at 0.08. On to C13A G30C, for which the self-cleavage was determined as 0.14.

Regarding C13A G30U, the self-cleavage was 0.11. Next, C13G C37A: 0.13; C13G C37G: 0.04. On to C13G C37U, for which the self-cleavage was found to be 0.37.

C13A: the self-cleavage was 0.15.

With C13G, the self-cleavage amounted to 0.22. Next, C13A A39C: 0.17. With C13A A39G, the self-cleavage is 0.15. In the case of C13A A39U, the self-cleavage was determined as 0.23. The same measure for A12U: 0.28; for A12U G17A: 0.05. On to A12U G17C, for which the self-cleavage came out at 0.25. The same measure for A12U G17U: 0.09. The same measure for C13G C42A: 0.07; for C13G C42G: 0.09; for C13G C42U: 0.12. The same measure for C13A G40C: 0.07.

On to C13A G40U, for which the self-cleavage amounted to 0.09. The same measure for C13A G40A: 0.09; for A12U A26C: 0.16. Next, A12U A26U: 0.28; A12U A26G: 0.22; C13G G27C: 0.08.

For C13G G27A, the self-cleavage is 0.27. Consider C13G G27U, for which the self-cleavage is 0.26.

In the case of A12G C37G, the self-cleavage worked out at 0.02. Take A12G C37U: the self-cleavage was 0.04. A12G C37A: the self-cleavage was determined as 0.04. Next, C13A G22U: 0.11; C13A G22A: 0.15; C13A G22C: 0.05.

Turning to C13G C45G, the self-cleavage turned out to be 0.23. Next, C13G C45U: 0.26.

With C13G C45A, the self-cleavage amounted to 0.25. Next, A12G U28A: 0.04; A12G U28G: 0.01; A12G U28C: 0.02.

As for A12U C13A, the self-cleavage stood at 0.21. Next, A12U C13U: 0.14. Next, A12U C13G: 0.48. Next, C13A A16C: 0.08.

Take C13A A16G: the self-cleavage was 0.03. Next, C13A A16U: 0.09; C13A G19A: 0.15.

On to C13A G19U, for which the self-cleavage was 0.09. Next, C13A G19C: 0.06; C13G A26G: 0.08; C13G A26U: 0.19.

Turning to C13G A26C, the self-cleavage worked out at 0.27.

Regarding C13G G21A, the self-cleavage is 0.38. The same measure for C13G G21C: 0.33.

As to C13G G21U, the self-cleavage stood at 0.31. Next, C13A U32G: 0.08; C13A U32C: 0.09; C13A U32A: 0.11. Regarding A12G G30C, the self-cleavage is 0.08.

For A12G G30A, the self-cleavage came out at 0.03.

Take A12G G30U: the self-cleavage came to 0.04. Next, C13A U20G: 0.1; C13A U20A: 0.11; C13A U20C: 0.04. The same measure for C13A A41C: 0.06. Consider C13A A41G, for which the self-cleavage was 0.12. Next, C13A A41U: 0.14. In the case of A12U U38C, the self-cleavage was 0.14.

Turning to A12U U38A, the self-cleavage turned out to be 0.09. Next, A12U U38G: 0.02; C13A G29U: 0.2. The same measure for C13A G29A: 0.19. With C13A G29C, the self-cleavage stood at 0.06. For A12U C42U, the self-cleavage worked out at 0.13. The same measure for A12U C42A: 0.06; for A12U C42G: 0.04; for A12U C37G: 0.06. For A12U C37U, the self-cleavage amounted to 0.02. As to A12U C37A, the self-cleavage stood at 0.05. For A12G U43G, the self-cleavage was 0.1.

On to A12G U43A, for which the self-cleavage was 0.12. Next, A12G U43C: 0.03. The same measure for A12G U34C: 0.05.

As to A12G U34G, the self-cleavage turned out to be 0.02. A12G U34A: the self-cleavage is 0.03. In the case of C13A C46U, the self-cleavage was found to be 0.08. C13A C46G: the self-cleavage was found to be 0.06. Regarding C13A C46A, the self-cleavage was found to be 0.07. Next, A12G G17U: 0.05; A12G G17A: 0.02; A12G G17C: 0.05. Next, A12G G36U: 0.03; A12G G36A: 0.06. A12G G36C: the self-cleavage turned out to be 0.04. Consider C13A U28G, for which the self-cleavage came out at 0.09. Next, C13A U28A: 0.07. The same measure for C13A U28C: 0.15; for C13G A14U: 0.09. Take C13G A14C: the self-cleavage came out at 0.05. Next, C13G A14G: 0.08; A12G G27U: 0.04; A12G G27C: 0.03. For A12G G27A, the self-cleavage stood at 0.03. Consider C13G A39U, for which the self-cleavage was 0.05. The same measure for C13G A39G: 0.09; for C13G A39C: 0.16.
